According to article PMC10897489:

Experiments:
[1] = target: SARS-CoV-2 N protein (NCAP_SARS2) (SARS-CoV-2, UniProt P0DTC9 1-419); experiment: ITC; settings: protein: recombinant; chain copies: 2
FXR1 215-360 (KH1-KH2) = FXR1 215-360 (KH1-KH2) (UniProt P51114 215-360); experiment: ITC; ITC: 50 mM sodium phosphate pH 7.5, 150 mM NaCl, 0.5 mM TCEP, 25 °C; settings: protein: recombinant; tags: His or GST (not specified which)

B1: NF1 RNA (ssRNA)
RNA: GGAUCAUUUUGUUGGACUCAAUUUCAACUCUAACUUUAACUUUGCAUUGGUUGGACACCU
For B1, the Kd [1] was 380 ± 40 nM and the binding result (FXR1 215-360 (KH1-KH2)) was “no binding”.
